Laboratory results: publication PMC3328447, “DNA Aptamers against the Lup an 1 Food Allergen”

Assays:
[1] = test system: beta-conglutin (Lup an 1) (lupin); experiment: SPR; conditions: 10 mM phosphate, 138 mM NaCl, 2.7 mM KCl, 1.5 mM MgCl2, pH 7.4; ELONA at 21 C, SPR temperature not stated (Biacore 3000, CM5)
[2] = test system: beta-conglutin (Lup an 1) (lupin); experiment: competition; conditions: 10 mM phosphate, 138 mM NaCl, 2.7 mM KCl, 1.5 mM MgCl2, pH 7.4; ELONA at 21 C, SPR temperature not stated (Biacore 3000, CM5)
[3] = molecular target: T1, gamma-conglutin (lupin, UniProt Q9FSH9;Q9FSH9 34-300;301-452); experiment: SPR; 10 uM DNA, 1.5 mM Mg2+; signal negligible; 10 mM phosphate, 138 mM NaCl, 2.7 mM KCl, 1.5 mM MgCl2, pH 7.4; ELONA at 21 C, SPR temperature not stated (Biacore 3000, CM5); conditions: protein: native, tags: none, label: none, single strand, predicted stem-loops and G-quadruplex (m-fold, QGRS)
T1 sequence 1: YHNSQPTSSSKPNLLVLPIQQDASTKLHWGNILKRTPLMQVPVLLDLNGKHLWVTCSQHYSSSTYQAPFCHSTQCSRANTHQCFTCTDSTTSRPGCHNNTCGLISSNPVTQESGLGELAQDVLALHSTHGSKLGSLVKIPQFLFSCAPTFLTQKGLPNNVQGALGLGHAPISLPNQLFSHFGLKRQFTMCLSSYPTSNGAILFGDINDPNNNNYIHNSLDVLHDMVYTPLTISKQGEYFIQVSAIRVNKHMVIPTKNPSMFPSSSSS
T1 sequence 2: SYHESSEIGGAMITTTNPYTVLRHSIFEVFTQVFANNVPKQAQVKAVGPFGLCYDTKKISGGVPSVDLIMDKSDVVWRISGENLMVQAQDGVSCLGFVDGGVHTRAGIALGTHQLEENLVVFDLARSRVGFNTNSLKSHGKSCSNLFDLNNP

**Q.** How did the Kd [1] turn out when “AGCTGACACAGCAGGTTGGTGGGGGTGGCTCACATCATGGTAGAATGACTGAACAGCGTTGATTAAAAGGCACGAGTCGAGCAATCTCGAAAT [Sequence 2 (S2)]” was run?
**A.** The Kd was 515 nM.

**Q.** Which results are given for “AGCTGACACAGCAGGTTGGTGGGGGTGGCTTCCAGTTGGGTTGACAATACGTAGGGACACGAAGTCCAACCACGAGTCGAGCAATCTCGAAAT [Sequence 40 (S40)]”?
**A.** IC50 [2]: 393 nM; Kd [1]: 360 nM

B1: Sequence 2 (S2) (structured_DNA)
DNA: AGCTGACACAGCAGGTTGGTGGGGGTGGCTCACATCATGGTAGAATGACTGAACAGCGTTGATTAAAAGGCACGAGTCGAGCAATCTCGAAAT
**Q.** Does B1 bind [3]?
**A.** Result: no binding

B2: Sequence 40 (S40) (structured_DNA)
DNA: AGCTGACACAGCAGGTTGGTGGGGGTGGCTTCCAGTTGGGTTGACAATACGTAGGGACACGAAGTCCAACCACGAGTCGAGCAATCTCGAAAT
**Q.** Does B2 bind ([3]; biotinylated probe S4 hybridised to 3' end for ELONA detection)?
**A.** Result: no binding
